We go through two molecules from US20130336924A1 (ALKERMES, published 2013).

The target of test [1] is T1, IL-6Rα on HEK-Blue IL-6 cells (human, UniProt P08887 20-468).
T1 sequence (looked up): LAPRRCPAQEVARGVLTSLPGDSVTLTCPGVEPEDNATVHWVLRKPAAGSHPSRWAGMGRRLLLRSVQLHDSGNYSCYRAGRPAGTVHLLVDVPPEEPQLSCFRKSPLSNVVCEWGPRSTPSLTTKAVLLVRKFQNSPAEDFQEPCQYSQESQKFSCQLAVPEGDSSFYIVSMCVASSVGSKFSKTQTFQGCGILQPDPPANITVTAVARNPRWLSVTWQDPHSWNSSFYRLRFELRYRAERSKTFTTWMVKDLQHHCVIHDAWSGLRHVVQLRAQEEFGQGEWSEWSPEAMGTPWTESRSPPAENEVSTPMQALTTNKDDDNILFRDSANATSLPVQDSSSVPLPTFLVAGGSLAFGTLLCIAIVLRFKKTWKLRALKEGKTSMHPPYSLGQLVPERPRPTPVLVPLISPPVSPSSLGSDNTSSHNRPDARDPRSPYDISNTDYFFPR
The experiment in a line: cell-based or functional assay.

Test [2] deals with T2, gp130 on HEK-Blue IL-6 cells (human, UniProt P40189 23-918).
T2 sequence: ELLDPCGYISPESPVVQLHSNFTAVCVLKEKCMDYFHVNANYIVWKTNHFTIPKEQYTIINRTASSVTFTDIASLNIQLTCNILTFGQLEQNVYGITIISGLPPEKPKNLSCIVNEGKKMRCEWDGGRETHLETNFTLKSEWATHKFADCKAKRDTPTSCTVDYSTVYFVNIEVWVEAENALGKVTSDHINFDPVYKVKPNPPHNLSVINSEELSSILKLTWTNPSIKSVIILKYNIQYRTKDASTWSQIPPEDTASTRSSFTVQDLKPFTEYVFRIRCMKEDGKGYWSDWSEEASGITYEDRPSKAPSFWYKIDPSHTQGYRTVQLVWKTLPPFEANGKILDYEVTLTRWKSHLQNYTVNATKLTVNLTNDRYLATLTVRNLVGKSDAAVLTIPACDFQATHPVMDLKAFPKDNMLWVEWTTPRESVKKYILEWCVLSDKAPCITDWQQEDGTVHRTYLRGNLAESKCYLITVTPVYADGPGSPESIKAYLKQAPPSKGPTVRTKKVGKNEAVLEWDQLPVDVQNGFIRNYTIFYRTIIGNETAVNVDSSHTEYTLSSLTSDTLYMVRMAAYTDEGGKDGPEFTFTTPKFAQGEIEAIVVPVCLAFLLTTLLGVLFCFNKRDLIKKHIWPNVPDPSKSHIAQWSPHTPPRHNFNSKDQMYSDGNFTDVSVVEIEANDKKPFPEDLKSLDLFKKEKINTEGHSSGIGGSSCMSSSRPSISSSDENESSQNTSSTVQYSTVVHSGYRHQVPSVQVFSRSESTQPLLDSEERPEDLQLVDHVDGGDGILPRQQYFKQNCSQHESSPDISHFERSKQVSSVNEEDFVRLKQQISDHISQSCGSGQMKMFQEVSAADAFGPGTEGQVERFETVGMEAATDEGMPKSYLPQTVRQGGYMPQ
The experiment in a line: cell-based or functional assay.

Molecule “IL-6 (from UniProt P05231 30-212) (ligand)” had an EC50, IL-6-induced SEAP reporter in HEK-Blue IL-6 cells (agonist activity) in test [1] of 1 pM.

B1: RDB1503 (ligand)
chain: QNQWLQDMTTHLILRSFKEFLQSSLRALRQMSGGSGGGSSERIDKQIRYILDGISALRKETCNKSNMCESSKEALAENNLNLPKMAEKDGCFQSGFNEETCLVKIITGLLEFEVYLEYLQNRFESSEEQARAVQMSTKVLIQFLQKKAKNLDAITTPDPTTNASLLTKLQ
B1: the “EC50, IL-6-induced SEAP reporter in HEK-Blue IL-6 cells (agonist activity)” value in test [1] and in test [2] was roughly 0.6 pM in each case.
